The series can be described thus: protein stability index of a GFP-peptide fusion (GPS, HEK-293T) (PSI 1-6); higher = more stable.
Setting [1] is: treatment: DMSO, c terminus: a fixed tail appended.
The mark [2] stands for this setting: treatment: MLN4924 1 uM, 8 h, c terminus: a fixed tail appended.

± gives the standard deviation.
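Note: 24-mer peptide tiles fused after GFP, lentivirally expressed, FACS-sorted into six equal bins by GFP/DsRed ratio, decoded by Illumina sequencing, PSI is the read-weighted mean bin number.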

Take EVTLSEAGSTAGAAETRGAVEGAA [PALM]: the protein stability index amounted to 5.43 ± 0.39 under setting [1] and 5.43 ± 0.17 under setting [2].
NTTCQTENRLSVFFSVIFMTVGIL [PTGFR]: the protein stability index reads like this: under setting [1], 2.39 ± 0.53; under setting [2], 2.64 ± 0.46.
For the sequence MRSPQNLHSQEDDDSSSESGSGNG [NOL4L], the protein stability index came out at 5.64 ± 0.21 under setting [1] and 5.51 ± 0.16 under setting [2].
As for YNSEILEEAISVVMSGKMSVSKAQ [LCOR], the protein stability index reads like this: under setting [1], 2.96 ± 0.17; under setting [2], 3.03 ± 0.41.
EPSHSVKVHTVPKPGKGADLSKPP [ATE1]: the protein stability index under setting [1] was determined as 4.96 ± 0.22 and the protein stability index under setting [2] is 4.96 ± 0.27.
In the same order, the values of QLESLGLLAPGEQSLPCTERKPAA [KISS1] are 4.69 ± 0.18 and 4.73 ± 0.15.
Take GLLKYCSLLVHGFKPACMSEIKNL [TENT5D]: the protein stability index came to 3.48 ± 0.69 under setting [1] and 2.59 ± 1.2 under setting [2].
For HYDRNKDGNKDVYLSLLRMYLSPP [VPS39], the protein stability index was found to be 2.29 ± 0.14 under setting [1] and 2.16 ± 0.18 under setting [2].
With DLLPVWLLEDMRASEAFHWDERGR [ANKRD9], the protein stability index runs as follows: under setting [1], 2.52 ± 0.5; under setting [2], 2.87 ± 0.45.
For the sequence PNIAMTSGTVQPKQDAFANFANFS [CLINT1], the protein stability index reads like this: under setting [1], 3.61 ± 0.34; under setting [2], 3.66 ± 0.14.
With ESKTDGDDTETVPSEQSHASGKLR [TCF25], the protein stability index is, setting by setting: under setting [1], 5.54 ± 0.26; under setting [2], 5.56 ± 0.4.
As to MRKGNTMQQFLQKALEILRKDFSE [FAM50A], the protein stability index runs as follows: under setting [1], 3.09 ± 0.59; under setting [2], 2.89 ± 0.46.
On to FRRGSGSACSLLCCCGRDPSEEHS [MCOLN1], for which the protein stability index under setting [1] worked out at 3.58 ± 0.35 and the protein stability index under setting [2] is 3.33 ± 0.24.
Consider RLHLAFKRQVPTEQAQAYAERLGV [RAB40B], for which the protein stability index by setting is: under setting [1], 3.13 ± 0.2; under setting [2], 3.1 ± 0.26.
Take GLMSFIGNRNKLGYSLARGSIGF [TPRG1]: the protein stability index is 2.67 ± 0.39 (treatment: DMSO, c terminus: native) and 2.5 ± 0.97 (treatment: MLN4924 1 uM, 8 h, c terminus: native).
Sequence IQVSLYCQEWYARRHCPLPQATFW [SOAT2] displayed a protein stability index under setting [1] of 2.87 ± 0.38 and a protein stability index under setting [2] of 3.07 ± 0.83.
As to MNHFTVNLNREEKIIREIDFYRED [TRIM55], the protein stability index is, setting by setting: under setting [1], 3.46 ± 0.4; under setting [2], 3.61 ± 0.33.
In the same order, the values of QSDTLEQREEHELVHVMERSLSPS [RAD54B] are 5.45 ± 0.26 and 5.33 ± 0.23.
As for LMMRMGILGRGLQEYQLPYQRVLP [TCAP], the protein stability index by setting is: under setting [1], 2.48 ± 0.4; under setting [2], 2.28 ± 0.25.
In turn, MSDSTWMSADPHLASSLSPSQDER [NOL4L] yielded a protein stability index under setting [1] of 5.31 ± 0.19 and a protein stability index under setting [2] of 5.18 ± 0.28.
With KLERLKQQNEDLRRMAESLRIPEG [FUT8], the protein stability index came out at 3.87 ± 0.28 under setting [1] and 4 ± 0.3 under setting [2].
Sequence ENIKGYYIIIVPLKKSRGKFIKPW [PTPRD] registered a protein stability index under setting [1] of 2.67 ± 0.86 and a protein stability index under setting [2] of 1.86 ± 0.45.
On to SSETPPPPPPPNEINPPPHTMEEE [EIF5], for which the protein stability index runs as follows: under setting [1], 5.52 ± 0.31; under setting [2], 5.46 ± 0.3.
Consider APEYRGRTELLKDAIGEGKVTLRI [MOG], for which the protein stability index under setting [1] is 2.59 ± 0.2 and the protein stability index under setting [2] turned out to be 2.72 ± 0.38.
In the same order, the values of CSRTWTNRLCHQEMGSKKTVTQED [SPAG8] are 3.7 ± 0.13 and 3.74 ± 0.14.
As for VSFVERILKSQKERQCALRVFKAR [FBXO39], the protein stability index is 2.35 ± 0.41 under setting [1] and 2.55 ± 0.21 under setting [2].
Take LNFWNKQDTLELESPSLTSTPVCS [MYBL2]: the protein stability index is, setting by setting: under setting [1], 3.58 ± 0.12; under setting [2], 3.63 ± 0.2.
For SQIRLNREHKETCEMDWSDKMEAY [TEKT4], the protein stability index by setting is: under setting [1], 4.47 ± 0.11; under setting [2], 4.58 ± 0.28.
In the case of DLQITDQVALLRLTWSELFVLNAA [NR2F2], the protein stability index is 2.92 ± 0.58 under setting [1] and 2.88 ± 0.65 under setting [2].
As to GLEGLFEDIDTSMYDNELWAPASE [SERTAD1], the protein stability index by setting is: under setting [1], 3.79 ± 0.05; under setting [2], 3.81 ± 0.29.
In the same order, the values of PAYGMSPSLSTITSTSSSITSSIP [DVL3] are 3.82 ± 0.26 and 3.65 ± 0.27.
Take RYWRSLRVMKVEDREGPSSSKLVT [HDAC6]: the protein stability index under setting [1] turned out to be 2.79 ± 0.22 and the protein stability index under setting [2] was 3.07 ± 0.44.
VLSVSKILHIPQVTKLCVQFLNDQ [KLHL14]: the protein stability index came to 2.52 ± 0.48 under setting [1] and 2.29 ± 0.35 under setting [2].
In the same order, the values of YSLFVGLFLFGYKFSGLYILSFTV [SLC35F2] are 3.24 ± 0.39 and 3.07 ± 0.39.
In the same order, the values of YISPELCEGKPYNQKSDIWALGCV [NEK8] are 2.19 ± 0.41 and 2.01 ± 0.19.
In the same order, the values of SSEHVTESVADLLALEEPVDYKQS [SLC6A17] are 5.17 ± 0.26 and 5.25 ± 0.34.
For the sequence NCCLTLCNFSIPEELEFQYRRVNE [ZER1], the protein stability index runs as follows: under setting [1], 2.55 ± 0.33; under setting [2], 2.55 ± 0.14.
In the same order, the values of ETSPLPGMLAPAAGPAFDSDPEIS [PPFIA4] are 5.48 ± 0.29 and 5.38 ± 0.31.
Take KSSIYESDFQIEPGFYATYESTLF [MIA2]: the protein stability index amounted to 2.33 ± 0.52 under setting [1] and 2.3 ± 0.31 under setting [2].
In the same order, the values of EDVEDHYEMGEELGSGQFAIVRKC [DAPK3] are 5.06 ± 0.099 and 5.3 ± 0.35.
In the same order, the values of PTSPVYRGSSSGPSSPARVSTTPR [MTUS2] are 5 ± 0.25 and 4.95 ± 0.33.
Consider GPQTPKACDSKLTFDAITTIRGEV [MMP1], for which the protein stability index is, setting by setting: under setting [1], 3.69 ± 0.28; under setting [2], 3.66 ± 0.25.
FDKKDRRALHWAAYMGHLDVVALL [ANKRD44]: the protein stability index runs as follows: under setting [1], 2.61 ± 0.82; under setting [2], 2.24 ± 0.22.
Sequence LRRRLEELQQELSLKDQERVAEVS [LRRC45] showed a protein stability index under setting [1] of 4.07 ± 0.42 and a protein stability index under setting [2] of 3.89 ± 0.32.
On to ILGPVVGGYLTELEDGFYLTAFIC [MFSD9], for which the protein stability index reads like this: under setting [1], 2.99 ± 0.34; under setting [2], 3.05 ± 0.88.
For SPWNFLGDELYEQSDEEQDSVKVA [CLPTM1], the protein stability index under setting [1] turned out to be 5.32 ± 0.21 and the protein stability index under setting [2] turned out to be 5.36 ± 0.4.
In the case of EESRISVPVHSFASLNIKTTVPEV [PRPH], the protein stability index by setting is: under setting [1], 4.05 ± 0.35; under setting [2], 3.98 ± 0.39.
AFRYLSWILFPLLGCYAVYSLLYL [CLPTM1]: the protein stability index is, setting by setting: under setting [1], 2.29 ± 0.44; under setting [2], 3.03 ± 0.66.
Under setting [2], SAESQGLDGAGLMGFVPHNGSLYG [ADAMTSL2] registered a protein stability index of 3.47 ± 1.6.
Turning to AQSRLEDPGQDLVPKQAIQVQEAD [DLX1], the protein stability index by setting is: under setting [1], 5.35 ± 0.18; under setting [2], 5.32 ± 0.27.
For DLFDLCDRTFTLKTVLMIAIQLLS [CSNK1G1], the protein stability index reads like this: under setting [1], 2.6 ± 0.43; under setting [2], 2.33 ± 0.42.
Turning to QCWKSLFIDTYSDVGRYIDHYAAI [FBXO3], the protein stability index was 2.65 ± 0.48 under setting [1] and 2.8 ± 0.72 under setting [2].
Regarding LLKPIPEYSPEEESEPPAPNIRNM [TRAF3IP2], the protein stability index by setting is: under setting [1], 5.12 ± 0.11; under setting [2], 5.22 ± 0.37.
Turning to PGFDSSVYSDLCEAAEAVRPEERK [ADAMTSL2], the protein stability index runs as follows: under setting [1], 5.42 ± 0.19; under setting [2], 5.83 ± 0.18.
In the same order, the values of AVIYLKKTPEEAYRALLSGSNPPY [CDC14A] are 2.21 ± 0.44 and 2.15 ± 0.46.
As to QPIRGVEGSDYINASFIDGYRQQK [PTPRD], the protein stability index under setting [1] was 4.31 ± 0.27 and the protein stability index under setting [2] turned out to be 4.37 ± 0.19.
As to TSILSRLPPEALTAPSGGQWGAEP [RNF208], the protein stability index was determined as 3.94 ± 0.14 under setting [1] and 4.05 ± 0.11 under setting [2].
Turning to EAKEGDLHRIEIPFKFHMLHSGLV [CARM1], the protein stability index under setting [1] stood at 2.07 ± 0.48 and the protein stability index under setting [2] turned out to be 2.49 ± 0.23.
KKQPWWRKLFGQESGPSAEKYSVA [FUNDC2] came in with a protein stability index under setting [1] of 3.1 ± 0.16 and a protein stability index under setting [2] of 3.32 ± 0.35.
Consider SRKSSIPNNKEIPSHHPTDPVELR [PTPRD], for which the protein stability index came out at 4.83 ± 0.1 under setting [1] and 5.04 ± 0.35 under setting [2].
In the same order, the values of IDLSHVTSKCGSLKNIRHRPGGGR [MAP2] are 3.18 ± 0.15 and 3.35 ± 0.3.
Consider SGERWLERYEIDSLIGKGSFGQVV [DYRK1B], for which the protein stability index amounted to 2.97 ± 0.2 under setting [1] and 3.1 ± 0.25 under setting [2].
In the same order, the values of YSNTDANILFYVVGLRNTLTRIRK [GLT8D2] are 2.3 ± 0.61 and 2.45 ± 0.3.
Regarding TGEFLKLPFERLAFVLSSNSLKHC [KLHL13], the protein stability index is, setting by setting: under setting [1], 2.55 ± 0.73; under setting [2], 2.85 ± 0.52.
On to CGHTFCRLCLPALSQMGAQSSGKI [TRIM15], for which the protein stability index runs as follows: under setting [1], 2.12 ± 0.42; under setting [2], 2.36 ± 0.46.
AIAKQALKKPIKGKQAPRKKAQGK [KMT5A]: under setting [2], the protein stability index came out at 4.02 ± 0.17.
For the sequence ETDSEMNSQESRSDLEDMEEEEGT [SMG5], the protein stability index is, setting by setting: under setting [1], 5.74 ± 0.16; under setting [2], 5.69 ± 0.074.
Consider DNPFGIYQKILAGKIDFPRHLDFH [PRKX], for which the protein stability index was found to be 2.1 ± 0.33 under setting [1] and 2.23 ± 0.28 under setting [2].
On to EDWDSALFAELGYFTDTDELQLEA [ATF6], for which the protein stability index was 4.3 ± 0.21 under setting [1] and 4.65 ± 0.23 under setting [2].
For NIEDYFSHHLAVYNSPQFKKTMST [FBXO39], the protein stability index runs as follows: under setting [1], 2.75 ± 0.28; under setting [2], 2.71 ± 0.12.
Turning to THQHWQQFEPQLTLWDVFGANKEV [RSAD1], the protein stability index was 2.65 ± 0.34 under setting [1] and 2.66 ± 0.24 under setting [2].
As to SNNITLREDQLDTVLAVLEDSSRD [INTS4], the protein stability index is, setting by setting: under setting [1], 5.25 ± 0.18; under setting [2], 5.28 ± 0.16.
On to EARGLRLSDLEDLEEEEEEEEEAE [IRX6], for which the protein stability index by setting is: under setting [1], 5.55 ± 0.41; under setting [2], 5.5 ± 0.39.

Source of the values: the supplement of paper PMC10567573.
